Data as given in patent publication US20190271705A1.

Legend:
[1] = biological target: seven peptides (fluorescein-labeled pTyr-containing peptides of the fluorescence polarization assay); test: fluorescence polarization in solution, SH2 domain titrated against fluorescein-labeled peptide
[2] = biological target: seven peptides (fluorescein-labeled pTyr-containing peptides of the fluorescence polarization assay); test: fluorescence polarization in solution; average over seven peptides, reference wild-type Fyn SH2 domain

B1: wild-type Fyn SH2 domain (hexa-histidine-tagged construct, SEQ ID NO:4) (protein)
chain: MKIEEHHHHHHSSGRENLYFQGGAAQPAAPVDSIQAEEWYFGKLGRKDAERQLLSFGNPRGTFLIRESETTKGAYSLSIRDWDDMKGDHVKHYKIRKLDNGGYYITTRAQFETLQQLVQHYSERAAGLSSRLVVPSHKGAAA
Kd [1]: 10 µM

B2: T8I/S10A/K15L variant Fyn SH2 domain (designed binder)
chain: MKIEEHHHHHHSSGRENLYFQGGAAQPAAPVDSIQAEEWYFGKLGRKDAERQLLSFGNPRGTFLIRESETIKGAYALSIRDWDDMKGDHVKHYLIRKLDNGGYYITTRAQFETLQQLVQHYSERAAGLSSRLVVPSHKGAAA
average fold affinity increase (Kd[wild-type] divided by Kd[variant]) [2]: 86.4 fold

B3: T8V variant Fyn SH2 domain (designed binder)
chain: MKIEEHHHHHHSSGRENLYFQGGAAQPAAPVDSIQAEEWYFGKLGRKDAERQLLSFGNPRGTFLIRESETVKGAYSLSIRDWDDMKGDHVKHYKIRKLDNGGYYITTRAQFETLQQLVQHYSERAAGLSSRLVVPSHKGAAA
average fold affinity increase (Kd[wild-type] divided by Kd[variant]) [2]: 1.4 fold
